Test results from patent US20080176793A1, “UPREGULATING ACTIVITY OR EXPRESSION OF BDNF TO MITIGATE COGNITIVE IMPAIRMENT IN ASYMPTOMATIC HUNTINGTON'S SUBJECTS” (THE REGENTS OF THE UNIVERSITY OF CALIFORNIA, priority 2006, published 2008).

How the values were obtained:
Type in all cases: cell-based
[1] = test system: hippocampal slices from Hdh^Q111 mice; assay: Within-train facilitation of theta burst responses in hippocampal slices; conditions: BDNF-treated Hdh^Q111 slices
Excerpt: Events that occur during the two-second period of TBS can potently influence the threshold, initial expression, magnitude, and stability of LTP (Arai and Lynch (1992) Eur. J. Neurosci. 4: 411-419; Larson et al. (1986) Brain Res. 368: 347-350). […] In marked contrast, the facilitation of the second and subsequent burst responses, each a composite of four closely spaced fEPSPs, was greatly attenuated in Hdh^Q111 slices (FIG. 2, panel a, e.g. burst 4). The facilitation effect was quantified by expressing the areas of burst responses 2-10 as fractions of the area of the first burst response.
(§1) Acute hippocampal slices were prepared, as described elsewhere (Kramar et al. (2004) J. Neurosci. 24: 5151-5161), from 8 week old Hdh^Q111, 24 week old Hdh^Q92 and age-matched WT mice and maintained at 32° C. in an interface chamber of local design. Synaptic responses (fEPSPs) were generated by stimulating the Schaffer-commissural afferents to the apical dendrites of field CA1b pyramidal cells using stimulating electrodes positioned in fields CA1a and CA1c. For baseline recording, fEPSPs were set to 30% of the maximum responses and low frequency stimulation (3 pulses/min) was delivered. The slope of the descending phase of the fEPSP was used as a measure of response size with all values normalized to a 15 min baseline period collected 1-2 h after slice preparation. LTP was induced with a single TBS train (ten bursts of 4 pulses at 100 Hz, inter-burst interval of 200 ms). BDNF (2 nM) was prepared and delivered to slices as described previously (Menalled (2005) NeuroRx 2: 465-470).
(§2) For all electrophysiology experiments, results are summarized in the text as a percent increase in responses from baseline. Data are presented as mean ±s.d. in the text and mean ±s.e.m. in the figures.

[2] = test system: hippocampal slices from Hdh^Q111 mice; assay: In situ rhodamine-phalloidin labeling of F-actin (TBS-induced actin polymerization in dendritic spines); conditions: BDNF 2 nM, Hdh^Q111 slices after TBS, n=13, mean ±s.d.
Method: Physiological recording and delivery of TBS or low frequency stimulation was performed as described above. Starting 20 min after TBS, rhodamine-phalloidin (6 μM/2-4 μl; from Sigma, St. Louis, Mo., or Invitrogen, Carlsbad, Calif.) was applied topically (Kramar et al. (2006) Proc. Natl. Acad. Sci., USA, 103: 5579-5784) via micropipette 3 times separated by 3 min. To test the effects of BDNF on actin polymerization, BDNF (2 nM) or artificial cerebral spinal fluid was delivered to WT and Hdh^Q111 slices via a reperfusion pump system (Cole-Palmer, Vernon Hills, Ill.) at 1 ml/min 1-2 h before recording. […]
Sections were examined with epifluorescence illumination using an Olympus AX70 photomicroscope. Quantitative analyses were carried out on three serial sections situated 20 to 80 μm below the surface of original slice. […] These images were then converted to grayscale and intensity levels were cropped at values determined for each experiment to visualize low-intensity labeling.
Labeled spine-like structures were measured and counted from a 550 μm^2 sampling zone in the proximal stratum radiatum between the two stimulating electrodes using in-house software described in detail previously (Kramar et al. (2006) Proc. Natl. Acad. Sci., USA, 103: 5579-5784; Lin et al. (2005) J. Neurosci. 25: 2062-2069). […]

[3] = test system: hippocampal slices from Hdh^Q111 mice; assay: TBS-induced long-term potentiation (fEPSP slope) in acute hippocampal slices, field CA1
Method: as §1, §2

B1: BDNF: the neurotrophin, Brain-Derived Neurotrophic Factor, delivered at 2 nM to hippocampal slices (protein, UniProt P23560 19-247, looked up)
Neurotrophic factor BDNF …: APMKEANIRGQGGLAYPGVRTHGTLESVNGPKAGSRGLTSLADTFEHVIEELLDEDQKVRPNEENNKDADLYTSRVMLSSQVPLEPPLLFLLEEYKNYLDAANMSMRVRRHSDPARRGELSVCDSISEWVTAADKKTAVDMSGGTVTVLEKVPVSKGQLKQYFYETKCNPMGYTKEGCRGIDKRHWNSQCRTTQSYVRALTMDSKKRIGWRFIRIDTSCVCTLTIKRGR
- effect on responses to stimulation bursts in the theta train [1]: did not facilitate responses to any stimulation burst
- burst 9 greater than burst 1 ([1]; mean ±s.d.): −5.8±9.3%
- Facilitation of the second burst response ([1]; relative to burst 1, mean ±s.d.): 46.1±10.2%
- number of phalloidin-labeled spines in the high-intensity bins [2]: 40.5±39.3 per 550 μm^2
- effect on baseline transmission ([3]; BDNF 2 nM infused for 60 min, Hdh^Q111 or WT slices): did not detectably change baseline transmission
- LTP compared with WT slices ([3]; BDNF 2 nM, Hdh^Q111 slices (FIG. 7, panel a)): not detectably different from WTs
- percent potentiation 45 min after TBS ([3]; BDNF 2 nM, Hdh^Q111 slices, mean ±s.d.): 43.6±23.5%
- LTP at 20 min post-TBS (percent increase in responses from baseline) ([3]; BDNF 2 nM, Hdh^Q111 slices, n=11, mean ±s.d.): 59.9±28.3%
- potentiation at end of 60 min post-TBS recording ([3]; BDNF 2 nM, subgroup of Hdh^Q111 slices, n=4): stable potentiation was present at the end of recording
